The text below walks through data of US6872803.

[ ]: non-standard residue; d: D form. Hyp = O=C(O)[C@@H]1C[C@@H](O)CN1; NMeI = CC[C@H](C)[C@H](NC)C(=O)O

One may read the IC50 as the concentration needed to halve the response being measured. A lower IC50 goes with inhibition by little substance.

For experiment [1], the target named is Bovine lung-derived ANP receptor (bovine). As to the kind of experiment: displacement of 125I-rat ANP from bovine lung membrane fraction, filter binding. In general terms: Loss of bound radioactivity is the signal in a displacement assay; it reports binding, not function.
Sequence of Bovine lung-derived ANP receptor (bovine) (P10730 42-537): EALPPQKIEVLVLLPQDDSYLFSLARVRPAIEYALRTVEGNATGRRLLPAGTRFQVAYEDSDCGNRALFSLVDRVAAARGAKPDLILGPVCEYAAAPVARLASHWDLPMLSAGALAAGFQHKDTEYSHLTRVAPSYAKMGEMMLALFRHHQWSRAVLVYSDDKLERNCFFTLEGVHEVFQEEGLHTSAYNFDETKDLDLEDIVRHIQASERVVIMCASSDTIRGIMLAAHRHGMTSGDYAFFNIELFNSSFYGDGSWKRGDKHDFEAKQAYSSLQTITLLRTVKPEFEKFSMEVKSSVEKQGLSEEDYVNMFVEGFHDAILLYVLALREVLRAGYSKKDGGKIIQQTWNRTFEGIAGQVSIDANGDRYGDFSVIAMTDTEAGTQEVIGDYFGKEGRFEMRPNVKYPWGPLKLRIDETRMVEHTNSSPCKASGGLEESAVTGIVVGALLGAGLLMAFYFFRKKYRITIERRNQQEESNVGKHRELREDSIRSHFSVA
Experiment [2] deals with BK receptor derived from guinea pig ilea (guinea pig). As to the kind of experiment: inhibition of 3H-BK (200 pM) binding to guinea pig ileum membrane fraction; test compound at 10^-8 M.
Sequence of BK receptor derived from guinea pig ilea (guinea pig) (O70526 whole entry): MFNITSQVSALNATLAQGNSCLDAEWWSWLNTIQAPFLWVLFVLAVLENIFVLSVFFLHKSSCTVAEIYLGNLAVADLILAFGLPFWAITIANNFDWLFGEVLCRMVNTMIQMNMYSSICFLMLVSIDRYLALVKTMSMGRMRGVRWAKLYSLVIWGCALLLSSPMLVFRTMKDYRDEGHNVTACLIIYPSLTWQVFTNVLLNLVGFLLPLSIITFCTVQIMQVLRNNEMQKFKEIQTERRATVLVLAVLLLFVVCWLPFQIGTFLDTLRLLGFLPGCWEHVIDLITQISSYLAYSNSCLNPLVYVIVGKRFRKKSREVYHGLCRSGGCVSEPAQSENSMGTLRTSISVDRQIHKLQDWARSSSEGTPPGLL
Experiment [3] has the same target. Nature of the experiment: inhibition of 3H-BK (200 pM) binding to guinea pig ileum membrane fraction; test compound at 10^-7 M.

B1: Compound (j), H-Phe-Gly-Gly-D-Arg-Ile-Asp-D-Arg-Ile-NH2 (peptide)
peptide: H-FGG[dR]ID[dR]I-NH2
SMILES: CC[C@H](C)[C@H](NC(=O)[C@@H](CCCNC(=N)N)NC(=O)[C@H](CC(=O)O)NC(=O)[C@@H](NC(=O)[C@@H](CCCNC(=N)N)NC(=O)CNC(=O)CNC(=O)[C@@H](N)Cc1ccccc1)[C@@H](C)CC)C(N)=O
Take B1: the IC50 in experiment [1] came out at 5400 nM.

B2: Compound (m), H-D-Arg-Arg-Pro-Hyp-Gly-Phe-Ser-D-Phe-Leu-Arg-OH (peptide)
peptide: H-[dR]RP[Hyp]GFS[dF]LR-OH
SMILES: CC(C)C[C@H](NC(=O)[C@@H](Cc1ccccc1)NC(=O)[C@H](CO)NC(=O)[C@H](Cc1ccccc1)NC(=O)CNC(=O)[C@@H]1C[C@@H](O)CN1C(=O)[C@@H]1CCCN1C(=O)[C@H](CCCNC(=N)N)NC(=O)[C@H](N)CCCNC(=N)N)C(=O)N[C@@H](CCCNC(=N)N)C(=O)O
In the case of B2, the Percentage inhibition (%) in experiment [2] amounted to 20%; in experiment [3], 68%.

B3: Compound (k), H-Phe-Gly-Gly-Arg-(N-Me)Ile-Asp-Arg-Ile-NH2 (peptide)
peptide: H-FGGR[NMeI]DRI-NH2
SMILES: CC[C@H](C)[C@H](NC(=O)[C@H](CCCNC(=N)N)NC(=O)[C@H](CC(=O)O)NC(=O)[C@H]([C@@H](C)CC)N(C)C(=O)[C@H](CCCNC(=N)N)NC(=O)CNC(=O)CNC(=O)[C@@H](N)Cc1ccccc1)C(N)=O
Consider B3, for which the 50% inhibitory concentration (IC50) in experiment [1] came to 21 nM.
